Legend:
[1] = biological target: CD80-Ig (extracellular domain of CD80 fused with the constant region of mouse IgG1 heavy chain) (mouse); assay: SPR (BIACORE), peptide over amine-coupled CD80-Ig, 37 C
[2] = biological target: CD80-Ig (extracellular domain of CD80 fused with the constant region of mouse IgG1 heavy chain) (mouse); assay: SPR direct kinetics, peptide 1.50E+03 nM over immobilized CD80-Ig
[3] = biological target: CD80-Ig (extracellular domain of CD80 fused with the constant region of mouse IgG1 heavy chain) (mouse); assay: SPR direct kinetics, peptide 3.00E+03 nM over immobilized CD80-Ig
[4] = biological target: CD80-Ig (extracellular domain of CD80 fused with the constant region of mouse IgG1 heavy chain) (mouse); assay: SPR direct kinetics, peptide 3.75E+02 nM over immobilized CD80-Ig
[5] = biological target: CD80-Ig (extracellular domain of CD80 fused with the constant region of mouse IgG1 heavy chain) (mouse); assay: SPR direct kinetics, peptide 6.00E+03 nM over immobilized CD80-Ig
[6] = biological target: CD80-Ig (extracellular domain of CD80 fused with the constant region of mouse IgG1 heavy chain) (mouse); assay: SPR direct kinetics, peptide 7.50E+02 nM over immobilized CD80-Ig
[7] = biological target: CD80-Ig (extracellular domain of CD80 fused with the constant region of mouse IgG1 heavy chain) (mouse); assay: SPR (BIACORE), direct binding to immobilized CD80-Ig, linear regression plot
[8] = biological target: CD80-Ig (extracellular domain of CD80 fused with the constant region of mouse IgG1 heavy chain) (mouse); assay: SPR competitive kinetics, average over peptide concentrations; competitor CD28-Ig
[9] = biological target: CD80-Ig (extracellular domain of CD80 fused with the constant region of mouse IgG1 heavy chain) (mouse); assay: SPR competitive kinetics, peptide 1 × 10^5 nM with 3.2 µM CD28-Ig (competitor) over captured CD80-Ig
[10] = biological target: CD80-Ig (extracellular domain of CD80 fused with the constant region of mouse IgG1 heavy chain) (mouse); assay: SPR competitive kinetics, peptide 2 × 10^5 nM with 3.2 µM CD28-Ig (competitor) over captured CD80-Ig
[11] = biological target: CD80-Ig (extracellular domain of CD80 fused with the constant region of mouse IgG1 heavy chain) (mouse); assay: SPR competitive kinetics, peptide 3 × 10^5 nM with 3.2 µM CD28-Ig (competitor) over captured CD80-Ig
[12] = biological target: CD80-Ig (extracellular domain of CD80 fused with the constant region of mouse IgG1 heavy chain) (mouse); assay: SPR competitive kinetics, peptide 0.5 × 10^5 nM with 3.2 µM CD28-Ig (competitor) over captured CD80-Ig
[13] = biological target: CD80-Ig (extracellular domain of CD80 fused with the constant region of mouse IgG1 heavy chain) (mouse); assay: SPR competitive kinetics, peptide 0.25 × 10^5 nM with 3.2 µM CD28-Ig (competitor) over captured CD80-Ig
[14] = biological target: CD80-Ig (extracellular domain of CD80 fused with the constant region of mouse IgG1 heavy chain) (mouse); assay: SPR competitive kinetics, peptide 0.125 × 10^5 nM with 3.2 µM CD28-Ig (competitor) over captured CD80-Ig
[15] = biological target: CD80-Ig (extracellular domain of CD80 fused with the constant region of mouse IgG1 heavy chain) (mouse); assay: SPR (BIACORE), EL CD28 peptide injected over amine-coupled CD80-Ig (1488 RU); slope of ln dR/dt vs t plotted against the peptide concentration, ka is the slope of this plot

B1: EL-CD28 (end-blocked L CD28 peptide mimetic) (peptide)
peptide: Ac-KIEFMYPPPYLDNERSNGTI-NH2
- maximum response units [1]: 668 RU
- koff [2]: 0.242 s⁻¹
- kon [2]: 115000 M⁻¹ s⁻¹
- koff [3]: 0.214 s⁻¹
- kon [3]: 137000 M⁻¹ s⁻¹
- koff [4]: 0.399 s⁻¹
- kon [4]: 246000 M⁻¹ s⁻¹
- koff [5]: 0.273 s⁻¹
- kon [5]: 111000 M⁻¹ s⁻¹
- koff [6]: 0.274 s⁻¹
- kon [6]: 110000 M⁻¹ s⁻¹
- Kd [7]: 2340 nM
- Kd [8]: 2790 nM
- Kd [9]: 2540 nM
- koff [9]: 0.0803 s⁻¹
- kon [9]: 31600 M⁻¹ s⁻¹
- Kd [10]: 1560 nM
- koff [10]: 0.0862 s⁻¹
- kon [10]: 55100 M⁻¹ s⁻¹
- Kd [11]: 2920 nM
- koff [11]: 6.89 s⁻¹
- kon [11]: 2.36e+06 M⁻¹ s⁻¹
- Kd [12]: 5000 nM
- koff [12]: 0.316 s⁻¹
- kon [12]: 63200 M⁻¹ s⁻¹
- Kd [13]: 3360 nM
- koff [13]: 0.0195 s⁻¹
- kon [13]: 3360 M⁻¹ s⁻¹
- Kd [14]: 1380 nM
- koff [14]: 0.101 s⁻¹
- kon [14]: 73400 M⁻¹ s⁻¹
- kon [15]: 113000 M⁻¹ s⁻¹

From patent US7220822
